Measured values from the supplement of paper PMC9170038.

Tested on: MS2 coat protein
Assay: apparent KD of MS2 coat protein; designed switch direction (-1 OFF switch, 1 ON switch): -1; higher = weaker reporter binding
Procedure, shortened: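 Normalised cluster fluorescence was curve-fitted, and each design's median over clusters is its apparent KD. Before this, SNAP-549-labelled MS2 coat protein was titrated from 0.7 or 1.5 nM, doubling to 3 µM, over RNA switches transcribed on Illumina chips by stalled E. coli RNA polymerase. Titrations had no input, 200 uM small-molecule ligand, or an oligonucleotide input, and steps lasted 0.8–1.5 h (lowest) to 10–20 min (highest).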

[1] = Eterna round: R95, input ligand: FMN 200 uM
[2] = Eterna round: R95, input ligand: microRNA oligo, concentration not stated
[3] = Eterna round: R95, input ligand: none
[4] = input ligand: microRNA oligo, concentration not stated

Row | Sequence | apparent KD of MS2 coat protein [1] [nM] | apparent KD of MS2 coat protein [2] [nM] | apparent KD of MS2 coat protein [3] [nM] | apparent KD of MS2 coat protein (input ligand: FMN 200 uM) [nM] | apparent KD of MS2 coat protein (input ligand: none) [nM] | apparent KD of MS2 coat protein [4] [nM]
1 | GGUCUGCGAGGAUAUACAUGAGGAUCACCCAUGUGCGAGAUACUAGUGAGGUCGAUUGGUAGAAGGCGCGGACG [JL-ex3-2.06 salish99 mod] (puzzle: Exclusion 3) | 182 | 86.4 | 88.8 | – | – | –
2 | GGUCUGCGAGGAUAUACAUGAGGAUCACCCAUGUGCGAGAUACUAGUGAGGUCGGUUGGUAGAAGGCGCGGACG [JL-ex3-2.07 salish99 mod] (puzzle: Exclusion 3) | 58.8 | 37.1 | 55.6 | – | – | –
3 | GGUGAAGCAGGAUAUGUAUCGAUAUACAUGAGGAUCACCCAUGUCAUGUACAAAUUGCAUAUAGAAGGGCUUCACC [Exclusion 5 (FMN-MS2 slide v.4)] (Eterna round: R97, puzzle: Exclusion 5) | – | – | – | 168 | 47.4 | –
4 | GGUGCCCGACAAGGAUAUAAGAUACAGAAAACCUUAGAAGGUGUCACAUGAGGAUCACCCAUGUGGUCCGGCACCAAUAACUCC [Inedraor] (Eterna round: R96, puzzle: Exclusion NG 1) | – | – | – | 58.9 | 41.9 | 18.1
5 | GGUGCGUAUGUGAGGAUAUGCUGGUCCUUGGAUCAGCAGAAGGCACAUGAGGAUCACCCAUGUGGUGUCGUACC [JL bmx4 3.46] (puzzle: Brourd's mod of Exclusion 4) | – | 149 | – | – | – | –
6 | GGUGCGUAUGUGAGGAUAUGCUGGUCCUUGGAUCGGCAGAAGGCACAUGAGGAUCACCCAUGUGGUGUCGUACG [salish99_Bmod_ex4_078] (puzzle: Brourd's mod of Exclusion 4) | – | 51.8 | – | – | – | –
7 | GGUGCGUAUGUGAGGAUAUGCUGGUCCUUGGCUCGGCAGAAGGCACAUGAGGAUCACCCAUGUGGUGUCGUACC [salish99_Bmod_ex4_054] (puzzle: Brourd's mod of Exclusion 4) | – | 141 | – | – | – | –
8 | GGUGCGUAUGUGAGGAUAUGCUGGUCCUUGGGUCAGCAGAAGGCACAUGAGGAUCACCCAUGUGGUGUCGUACC [salish99_Bmod_Ex4_026] (puzzle: Brourd's mod of Exclusion 4) | 20.3 | 345 | 344 | – | – | –
9 | GGUGCGUUUGUGAGGAUAUGCUGGUCCUUGGUUCAGCAGAAGGCACAUGAGGAUCACCCAUGUGGUGUCGUACC [salish99_Bmod_Ex4_031] (puzzle: Brourd's mod of Exclusion 4) | – | 145 | – | – | – | –
10 | GGUGCUGGCGCGUCGGUGUUGGUGCAAUAAGCUUGUGAAACAUGAGGAUCACCCAUGUCCUCGUGGGCUCGUCUUGU [salish99_TOv2_r2_090] (puzzle: Sensor v3, turn-off variant 2) | 480 | 12.5 | 434 | – | – | –
11 | GGUGGACAUGAGGAUCACCCAUGUGAGGAUAUCGGCUGGCUAGCGGCGGACGGCUUCUCGAGAAGGCGCAUUGU [Exclusion 1 V83] (Eterna round: R96, puzzle: Exclusion 1) | – | – | – | 68.8 | 64.5 | 42.2
12 | GGUGGACAUGAGGAUCACCCAUGUGAGGAUAUCGGCUGGCUAGCGGCGGACGGCUUCUCGAGAAGGCGCAUUGU [Exclusion 1 V83] (puzzle: Exclusion 1) | – | 46.3 | – | – | – | –
13 | GGUGGACAUGAGGAUCACCCAUGUGAGGAUAUCGGCUGGUACGUGUUGGCUGGCUUCUCGAGAAGGCACAUAGU [Exclusion 1 V65] (puzzle: Exclusion 1) | – | 45.9 | – | – | – | –
14 | GGUGGCUACGUGAGACAUGAGGAUCACCCAUGUUACCGAACGAAGGAUAUAGAAGCACAUAGCUACUAGAAGGUUGAAAAGAAA [Laeratveti] (Eterna round: R96, puzzle: Exclusion NG 3) | – | – | – | 22.6 | 29.9 | 24.1
15 | GGUUCGAGUGUGAGGAUAUGCUGGUCCUUGGAUCAGCAGAAGGCACAUGAGGAUCACCCAUGUGGUAACGGACC [Mat - Exclusion 4 - Eli Mod - D35] (Eterna round: R97, puzzle: Brourd's mod of Exclusion 4) | – | – | – | 263 | 331 | –
16 | GGUUGGCGAGGAUAUACAUGAGGAUCACCCAUGUGAGAAUUAAAAGUGAGGAAGAAAAGUAGAAGGCGCUGACG [Mat - Exclusion 3 - Mod of Salish D4] (puzzle: Exclusion 3) | 304 | 36.1 | 384 | – | – | –
17 | GGUUGGCGAGGAUAUACAUGAGGAUCACCCAUGUGAGAGAAUAAAGUGAGAAAGAAAAGUAGAAGGCGCUGACA [Mat - Exclusion 3 - Mod of Salish D51] (puzzle: Exclusion 3) | 900 | 46.9 | 63.9 | – | – | –
18 | GGUUGUUGUUUCCGUUCUUACAUGAGGAUCACCCAUGUUUCUUGUCGUGCUCGCGUUGCUCGUCUGGCUGUCUGUUG [salish99_TOv1_r3_071] (puzzle: Sensor v3, turn-off variant 1) | 52.3 | 40.2 | 67.7 | – | – | –
19 | GGUUUGGGAGGAUAUGGUUUGAAUAACAUGAGGAUCACCCAUGUAAAUAGAUCUUCCGGGCCAGAAGGCUCGGGCC [-23.9, -21.52 kcal, A 26%] (Eterna round: R97, puzzle: Exclusion 5) | – | – | – | 29.5 | 34.6 | –
20 | GGUUUUUUUUUCCUUUCUUACAUGAGGAUCACCCAUGUUUCUUGUCGUGCUCGCGUUGCUCGUCUGUCUGUCUGUUG [salish99_TOv1_r3_075(!)] (puzzle: Sensor v3, turn-off variant 1) | 49.7 | 41 | 56.2 | – | – | –
21 | GUAAACCGGUGAGGAUAUUUAUAAUAGAGCUUUAUGAUAUACAUGAGGAUCACCCAUGUUACUUUAAAGAAGGCAUCGGAAAUG [Mat - Exclusion NG 2 - Mod of JL - D95] (Eterna round: R96, puzzle: Exclusion NG 2) | – | – | – | – | – | 15.5
22 | GUAAACGCAGAGGAUAUAUCAGAUCAAAGCUGCAUAGAAGGCUGCACAUGAGGAUCACCCAUGUGGUCUUCAAG [Mat - Exclusion 6 - JL Mod - D7] (Eterna round: R97, puzzle: Exclusion 6) | – | – | – | 230 | 31.2 | –
23 | GUAAAGGUAGGAUAUACGAAGAAAAAGGGUAGAAGAAAAACACAUGAGGAUCACCCAUGUAGAAGGACCAAAUG [Mat - Exclusion 2 - Mod of my Tesla design - D3] (puzzle: Exclusion 2) | 77.6 | 28.6 | 34 | – | – | –
